From article PMC12682024

Molecular target: dopamine 2 receptor (D2R) with SmBiT tag (UniProt P14416)
Assay: split reporter (BiFC, NanoBiT); NanoBiT in cells: SmBiT on D2R, LgBiT on Gβ; stimulation with dopamine; Gαo-free control = 0% interaction, WT Gαo = 100% interaction

Sequence of UniProt P14416 (P14416 whole entry): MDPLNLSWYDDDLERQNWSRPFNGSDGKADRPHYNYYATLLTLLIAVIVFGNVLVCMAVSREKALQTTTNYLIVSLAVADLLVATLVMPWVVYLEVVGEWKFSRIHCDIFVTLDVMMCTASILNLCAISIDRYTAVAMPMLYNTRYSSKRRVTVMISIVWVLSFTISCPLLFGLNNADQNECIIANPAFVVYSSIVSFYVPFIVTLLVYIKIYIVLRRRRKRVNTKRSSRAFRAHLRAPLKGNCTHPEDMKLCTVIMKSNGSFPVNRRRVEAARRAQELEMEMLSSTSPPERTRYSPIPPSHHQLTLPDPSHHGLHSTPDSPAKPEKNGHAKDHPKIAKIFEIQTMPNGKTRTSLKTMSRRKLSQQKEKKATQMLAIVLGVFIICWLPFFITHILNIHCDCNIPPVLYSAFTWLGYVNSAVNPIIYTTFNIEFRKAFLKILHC

Sequence: G protein heterotrimer of N76K Gαo with LgBiT-tagged Gβ and Gγ (from UniProt P09471 1-354; P62873 1-340; P59768 1-71) (complex)
- fold change of receptor-Gβγ interaction against WT Gαo: 4 fold
